Measurements reported in the RNAGym collection of RNA variant scans (doi:10.7554/elife.90254).

B1: LINE1-mini (parent)
chain: GGCAGAGCUCAACACAGCGUGGCAAAGUGGCUGUGGCUAGACUGCC

Variants of: B1
Test: self-cleavage, relative activity (ratio to wild type); higher = more cleavage; in vitro, sequencing; the parent is a self-cleaving ribozyme

Variant | self-cleavage
GUCAGAGCUCAACACAGCGUGGCAAAGUGGCUGUGGCUAGAGUGCC [G2U C42G] | 0.02
GUCAGAGCUCAACACAGCGUGGCAAAGUGGCUGUGGCUAGAUUGCC [G2U C42U] | 0.1
GUCAGAGCUCAACACAGCGUGGCAAAGUGGCUGUGGCUAGAAUGCC [G2U C42A] | 0.06
GUCAGAGCUCAACACAGCGUGGCAAAGUGGCUGUGGCUAAACUGCC [G2U G40A] | 0.03
GUCAGAGCUCAACACAGCGUGGCAAAGUGGCUGUGGCUACACUGCC [G2U G40C] | 0.03
GUCAGAGCUCAACACAGCGUGGCAAAGUGGCUGUGGCUAUACUGCC [G2U G40U] | 0.04
GUCAAAGCUCAACACAGCGUGGCAAAGUGGCUGUGGCUAGACUGCC [G2U G5A] | 0.06
GUCACAGCUCAACACAGCGUGGCAAAGUGGCUGUGGCUAGACUGCC [G2U G5C] | 0.04
GUCAUAGCUCAACACAGCGUGGCAAAGUGGCUGUGGCUAGACUGCC [G2U G5U] | 0.02
GUCAGAGCUCAACACAGCGUGGCAAAGUGGCUGUGGGUAGACUGCC [G2U C37G] | 0.04
GUCAGAGCUCAACACAGCGUGGCAAAGUGGCUGUGGAUAGACUGCC [G2U C37A] | 0.03
GUCAGAGCUCAACACAGCGUGGCAAAGUGGCUGUGGUUAGACUGCC [G2U C37U] | 0.05
GUCAGAGCUCAACACAGCGUGGCAAAGUGCCUGUGGCUAGACUGCC [G2U G30C] | 0.1
GUCAGAGCUCAACACAGCGUGGCAAAGUGUCUGUGGCUAGACUGCC [G2U G30U] | 0.1
GUCAGAGCUCAACACAGCGUGGCAAAGUGACUGUGGCUAGACUGCC [G2U G30A] | 0.09
GUCAGAGCUCAACACAGCAUGGCAAAGUGGCUGUGGCUAGACUGCC [G2U G19A] | 0.08
GUCAGAGCUCAACACAGCCUGGCAAAGUGGCUGUGGCUAGACUGCC [G2U G19C] | 0.03
GUCAGAGCUCAACACAGCUUGGCAAAGUGGCUGUGGCUAGACUGCC [G2U G19U] | 0.05
GUCAGACCUCAACACAGCGUGGCAAAGUGGCUGUGGCUAGACUGCC [G2U G7C] | 0.04

Variant | self-cleavage
GUCAGAACUCAACACAGCGUGGCAAAGUGGCUGUGGCUAGACUGCC [G2U G7A] | 0.07
GUCAGAUCUCAACACAGCGUGGCAAAGUGGCUGUGGCUAGACUGCC [G2U G7U] | 0.05
GUCAGAGCUCAACACAGCGUGGCAAAGUGGCUUUGGCUAGACUGCC [G2U G33U] | 0.04
GUCAGAGCUCAACACAGCGUGGCAAAGUGGCUAUGGCUAGACUGCC [G2U G33A] | 0.03
GUCAGAGCUCAACACAGCGUGGCAAAGUGGCUCUGGCUAGACUGCC [G2U G33C] | 0.02
GUCAGAGCUCAACACAGCGUGGCAAAGUGGCUGUGGCUAGACUGAC [G2U C45A] | 0.45
GUCAGAGCUCAACACAGCGUGGCAAAGUGGCUGUGGCUAGACUGUC [G2U C45U] | 0.11
GUCAGAGCUCAACACAGCGUGGCAAAGUGGCUGUGGCUAGACUGGC [G2U C45G] | 0.23
GUCAGAGCUCAACACAGCGUGUCAAAGUGGCUGUGGCUAGACUGCC [G2U G22U] | 0.11
GUCAGAGCUCAACACAGCGUGACAAAGUGGCUGUGGCUAGACUGCC [G2U G22A] | 0.11
GUCAGAGCUCAACACAGCGUGCCAAAGUGGCUGUGGCUAGACUGCC [G2U G22C] | 0.12
GUCAGAGCUCAACACAGCGUGGCAAAGUGGAUGUGGCUAGACUGCC [G2U C31A] | 0.04
GUCAGAGCUCAACACAGCGUGGCAAAGUGGGUGUGGCUAGACUGCC [G2U C31G] | 0.03
GUCAGAGCUCAACACAGCGUGGCAAAGUGGUUGUGGCUAGACUGCC [G2U C31U] | 0.02
GUCAGAGCUCAACACAGCGUGGCAAAGUGGCUGUGUCUAGACUGCC [G2U G36U] | 0.04
GUCAGAGCUCAACACAGCGUGGCAAAGUGGCUGUGCCUAGACUGCC [G2U G36C] | 0.05
GUCAGAGCUCAACACAGCGUGGCAAAGUGGCUGUGACUAGACUGCC [G2U G36A] | 0.05
GUCAGAGCUCAACACAGCGUGGCAAAGUUGCUGUGGCUAGACUGCC [G2U G29U] | 0.11
GUCAGAGCUCAACACAGCGUGGCAAAGUAGCUGUGGCUAGACUGCC [G2U G29A] | 0.09

Variant | self-cleavage
GUCAGAGCUCAACACAGCGUGGCAAAGUCGCUGUGGCUAGACUGCC [G2U G29C] | 0.04
GUCAGAGCUCAACACAGCGUAGCAAAGUGGCUGUGGCUAGACUGCC [G2U G21A] | 0.25
GUCAGAGCUCAACACAGCGUUGCAAAGUGGCUGUGGCUAGACUGCC [G2U G21U] | 0.14
GUCAGAGCUCAACACAGCGUCGCAAAGUGGCUGUGGCUAGACUGCC [G2U G21C] | 0.09
GUCAGAGCUCAACACAUCGUGGCAAAGUGGCUGUGGCUAGACUGCC [G2U G17U] | 0.04
GUCAGAGCUCAACACACCGUGGCAAAGUGGCUGUGGCUAGACUGCC [G2U G17C] | 0.05
GUCAGAGCUCAACACAACGUGGCAAAGUGGCUGUGGCUAGACUGCC [G2U G17A] | 0.03
GUCAGAGCUCAACACAGCGUGGUAAAGUGGCUGUGGCUAGACUGCC [G2U C23U] | 0.15
GUCAGAGCUCAACACAGCGUGGGAAAGUGGCUGUGGCUAGACUGCC [G2U C23G] | 0.04
GUCAGAGCUCAACACAGCGUGGCAAAGUGGCUGUGGCUAGACUGCG [G2U C46G] | 0.1
GUCAGAGCUCAACACAGCGUGGCAAAGUGGCUGUGGCUAGACUGCA [G2U C46A] | 0.09
GUCAGAGCUCAACACAGCGUGGCAAAGUGGCUGUGGCUAGACUGCU [G2U C46U] | 0.06
GUCAGAGCUCAACACAGCGUGGCAAAGUGGCUGUUGCUAGACUGCC [G2U G35U] | 0.07
GUCAGAGCUCAACACAGCGUGGCAAAGUGGCUGUCGCUAGACUGCC [G2U G35C] | 0.05
GUCAGAGCUCAACACAGCGUGGCAAAGUGGCUGUAGCUAGACUGCC [G2U G35A] | 0.05
GUCAGAGCUCAACACAGCGUGGCAAAUUGGCUGUGGCUAGACUGCC [G2U G27U] | 0.06
GUCAGAGCUCAACACAGCGUGGCAAACUGGCUGUGGCUAGACUGCC [G2U G27C] | 0.09
GUCAGAGCUCAACACAGCGUGGCAAAAUGGCUGUGGCUAGACUGCC [G2U G27A] | 0.15
